Kd and co-precipitated viral factor relative to the TAP complex lacking fused ICP47 data for 2 molecules are collected here from PMC5109273.

In one experiment the target is TAP (Homo sapiens) (UniProt Q03518). The following applies: cited from earlier work.
Experiment [1] deals with ICP47-TAP fusion complex with fused ICP47(∆1-11) (UniProt P03170). As to the kind of experiment: co-IP; HEK293T co-transfected 1:1:5 (TAP1:TAP2:viral factor); solubilised in 2% digitonin; sequential precipitation via SBP tag (streptavidin agarose, biotin elution) and C8 tag (anti-C8 antibody on Dynabeads); co-precipitated mVenus-tagged viral factor quantified by SDS-PAGE and in-gel fluorescence relative to TAP lacking fused ICP47; on ice, pH 7.4.

UniProt Q03518, sequence (Q03518 whole entry, chain 1 of 2, the tested form may be a part): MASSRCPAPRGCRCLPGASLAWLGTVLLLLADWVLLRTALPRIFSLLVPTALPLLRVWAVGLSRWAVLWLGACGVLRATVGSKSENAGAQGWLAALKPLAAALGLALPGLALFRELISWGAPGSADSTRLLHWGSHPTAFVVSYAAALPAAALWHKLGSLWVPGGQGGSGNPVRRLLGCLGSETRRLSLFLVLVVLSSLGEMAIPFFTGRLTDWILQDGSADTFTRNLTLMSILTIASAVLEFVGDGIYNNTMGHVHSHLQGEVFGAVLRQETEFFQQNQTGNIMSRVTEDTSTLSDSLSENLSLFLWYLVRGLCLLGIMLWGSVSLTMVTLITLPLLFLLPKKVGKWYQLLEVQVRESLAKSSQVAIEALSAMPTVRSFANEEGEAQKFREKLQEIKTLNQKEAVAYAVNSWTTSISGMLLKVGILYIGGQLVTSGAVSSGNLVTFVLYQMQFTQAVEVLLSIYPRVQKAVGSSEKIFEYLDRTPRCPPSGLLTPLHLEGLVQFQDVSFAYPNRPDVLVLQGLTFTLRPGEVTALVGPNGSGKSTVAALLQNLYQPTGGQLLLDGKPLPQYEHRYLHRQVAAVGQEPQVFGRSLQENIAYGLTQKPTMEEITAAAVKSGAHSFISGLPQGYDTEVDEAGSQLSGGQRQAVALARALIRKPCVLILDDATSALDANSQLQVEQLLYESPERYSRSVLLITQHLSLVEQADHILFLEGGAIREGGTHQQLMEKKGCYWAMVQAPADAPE
UniProt Q03518, sequence (Q03519 whole entry, chain 2 of 2, further chain, the tested form may be a part): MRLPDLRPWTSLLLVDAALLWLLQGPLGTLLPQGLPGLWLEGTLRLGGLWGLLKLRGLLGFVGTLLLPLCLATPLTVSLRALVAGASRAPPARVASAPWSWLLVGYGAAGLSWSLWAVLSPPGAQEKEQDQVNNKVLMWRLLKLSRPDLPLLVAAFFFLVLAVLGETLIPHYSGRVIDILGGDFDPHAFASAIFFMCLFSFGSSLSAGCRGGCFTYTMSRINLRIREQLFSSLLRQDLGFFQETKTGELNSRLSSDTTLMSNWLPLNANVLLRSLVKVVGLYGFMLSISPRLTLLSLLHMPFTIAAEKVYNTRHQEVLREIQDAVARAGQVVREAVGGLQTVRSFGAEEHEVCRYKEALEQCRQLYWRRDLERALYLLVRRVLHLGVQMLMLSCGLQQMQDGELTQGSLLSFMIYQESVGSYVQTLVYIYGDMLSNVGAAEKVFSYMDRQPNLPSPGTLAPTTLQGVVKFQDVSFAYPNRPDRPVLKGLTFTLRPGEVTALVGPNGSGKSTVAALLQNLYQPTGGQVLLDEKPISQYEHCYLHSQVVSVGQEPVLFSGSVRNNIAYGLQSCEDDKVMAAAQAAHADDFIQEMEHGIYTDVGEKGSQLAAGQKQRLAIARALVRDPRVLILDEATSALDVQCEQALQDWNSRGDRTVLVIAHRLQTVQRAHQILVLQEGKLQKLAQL

As usually defined, the Kd is a measure of binding affinity in units of concentration. Take ICP47 (from UniProt P03170): the Kd with TAP (Homo sapiens) is 50 nM.

B1: non-fused full-length ICP47(1-88) with C-terminal mVenus-myc-His10 tag (natural protein)
chain: MSWALEMADTFLDTMRVGPRTYADVRDEINKRGREDREAARTAVHDPERPLLRSPGLLPEIAPNASLGVAHRRTGGTVTDSPRNPVTR
Regarding B1, the co-precipitated viral factor relative to the TAP complex lacking fused ICP47 in experiment [1] amounted to 100%.
